Here are results for six molecules from US20170240629A1 (Hoffmann-La Roche, published 2017).

Test [1] deals with T1, human PDGF-BB (human, UniProt P01127 82-190).
T1 construct: also called huPDGF-BB
As to the kind of experiment: SPR; apparent KD** of the IgG.

The target of the next test is rat PDGF-BB (rat, UniProt Q05028 74-182). As to the kind of experiment: ELISA, antigen coated.
The next test has as its target T2, murine PDGF-BB (murine, UniProt P31240 82-190).
T2 construct: also called muPDGF-BB
The experiment in a line: ELISA, antigen coated.

For test [2], the target named is T3, cynomolgus PDGF-BB (cynomolgus, UniProt A0A2K5UX81 82-190).
T3 construct: also called cynPDGF-BB
T3 sequence (A0A2K5UX81 entry or part of it): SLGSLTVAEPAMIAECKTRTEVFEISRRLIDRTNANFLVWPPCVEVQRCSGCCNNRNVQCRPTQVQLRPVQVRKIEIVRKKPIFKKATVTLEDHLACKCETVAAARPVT
As to the kind of experiment: ELISA, antigen coated.
Protocol: (§1) The binding analysis was carried out using an enzyme-linked immunosorbent assay (ELISA)-based technology. […] The EC₅₀ was calculated with a four parameter logistic model using GraphPad Prism 6.0 software.

The target of test [3] is T1, human PDGF-BB. The experiment in a line: ELISA, antigen coated.
Protocol: as §1
Test [4] deals with T1, human PDGF-BB. As to the kind of experiment: cell-based or functional assay.
The target in test [5] is T1, human PDGF-BB. As to the kind of experiment: competition ELISA; biotinylated human PDGF-BB with antibody on coated Fc-tagged PDGF-BB receptor (competitor).
Protocol: The IC₅₀ was calculated with a four parameter logistic model using GraphPad Prism 6.0 software.
Test [6] concerns the target T3, cynomolgus PDGF-BB. The experiment in a line: SPR (BIAcore B4000); PDGF-BB coupled on C1 chip, antibody injected; apparent KD (avidity).
Protocol: (§2) The binding analysis was carried out using a surface plasmon resonance spectroscopy-based technology applying a BIAcore B4000 system (GE Healthcare). […] Utilizing a read out time of 180 sec. association phase and 600 sec. dissociation phase the apparent kₐ and apparent kd were calculated. The apparent KD (avidity) was calculated using the BlAcore T200 v2.0 fitting software.
In test [7] the target is T1, human PDGF-BB. Described as above.
Protocol: as §2
The target of test [8] is T1, human PDGF-BB. As to the kind of experiment: cell-based or functional assay. The source holds these as a separate data set.
In test [9] the target is T3, cynomolgus PDGF-BB. The experiment in a line: SPR (BIAcore B4000); PDGF-BB coupled on C1 chip, antibody injected; apparent value.
Protocol: as §2
Test [10] deals with T1, human PDGF-BB. The description is as above.
Protocol: as §2
In test [11] the target is T1, human PDGF-BB. As to the kind of experiment: SPR; IgG.
Test [12] has as its target T1, human PDGF-BB. As to the kind of experiment: SPR (BIAcore T200) kinetic screening; PDGF-BB coupled on C1 chip, antibody injected.
For test [13], the target named is T1, human PDGF-BB. As to the kind of experiment: SPR (BIAcore T200); PDGF-BB coupled on CM3 chip, Fab injected.
Test [14] addresses T1, human PDGF-BB. As to the kind of experiment: SPR; apparent KD* of the Fab.
In test [15] the target is T1, human PDGF-BB. As to the kind of experiment: SPR; Fab.
For test [16], the target named is T1, human PDGF-BB. As to the kind of experiment: SPR (BIAcore T200); PDGF-BB coupled on CM3 chip, antibody injected (Example 52). Also on record: t½: unit not given here.
Test [17] deals with T1, human PDGF-BB. The experiment in a line: SPR; apparent KD of the Fab.
The target of test [18] is T1, human PDGF-BB. As to the kind of experiment: SPR; Fab. The source holds these as a separate data set.
Test [19] concerns the target T1, human PDGF-BB. The experiment in a line: SPR (BIAcore T200); PDGF-BB coupled on CM3 chip, Fab injected. This is another data set of the same source.
The next test addresses T4, ANG2 (UniProt O15123 68-496, limits assumed).
T4 sequence (looked up): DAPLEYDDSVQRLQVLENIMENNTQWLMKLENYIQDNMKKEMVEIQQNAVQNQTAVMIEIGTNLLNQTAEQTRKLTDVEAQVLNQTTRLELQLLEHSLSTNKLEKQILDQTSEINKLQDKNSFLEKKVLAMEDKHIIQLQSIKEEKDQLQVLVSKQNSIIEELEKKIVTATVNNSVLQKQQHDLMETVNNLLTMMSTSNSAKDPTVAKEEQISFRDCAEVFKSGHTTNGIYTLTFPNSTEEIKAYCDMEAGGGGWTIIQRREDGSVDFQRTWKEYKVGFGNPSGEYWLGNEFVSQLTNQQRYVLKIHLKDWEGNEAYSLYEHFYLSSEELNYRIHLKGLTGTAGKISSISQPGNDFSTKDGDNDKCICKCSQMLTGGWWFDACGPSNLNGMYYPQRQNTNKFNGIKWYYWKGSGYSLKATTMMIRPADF
As to the kind of experiment: cell-based or functional assay.

Test [20] addresses T5, human IL-1beta (human, UniProt P01584 117-269). As to the kind of experiment: cell-based or functional assay.
Test [21] has as its target T5, human IL-1beta. As to the kind of experiment: cell-based or functional assay. The source holds these as a separate data set.
Test [22] concerns the target T5, human IL-1beta. As to the kind of experiment: SPR (BIAcore T200); antibody captured by anti-human Fc, human IL-1beta injected (Example 52). Also noted: t 1/2: unit not given here.
Test [23] concerns the target T6, human ANG2-RBD-mouse Fc-region fusion (human, UniProt O15123 275-496, limits assumed).
T6 construct: domain: RBD; also called human ANG2-RBD-murine Fc-region fusion; not shown: mouse Fc-region
T6 sequence (looked up): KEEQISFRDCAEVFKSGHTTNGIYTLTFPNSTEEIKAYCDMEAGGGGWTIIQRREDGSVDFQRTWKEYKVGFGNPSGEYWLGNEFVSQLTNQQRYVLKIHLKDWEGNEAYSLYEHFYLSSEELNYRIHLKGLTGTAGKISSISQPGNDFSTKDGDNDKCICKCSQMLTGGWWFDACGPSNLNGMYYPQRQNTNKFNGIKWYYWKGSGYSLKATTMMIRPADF
As to the kind of experiment: SPR (BIAcore T200); ANG2-RBD-mouse Fc captured, antibody injected (Example 52).

T1 sequence (P01127 82-190 limits assumed): as the sequence (A0A2K5UX81 entry or part of it) above, with V7I counted along it
T2 sequence (P31240 82-190 limits assumed): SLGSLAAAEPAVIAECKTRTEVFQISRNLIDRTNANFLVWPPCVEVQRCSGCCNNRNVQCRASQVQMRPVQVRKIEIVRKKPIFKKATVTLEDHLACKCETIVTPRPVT
Chain of rat PDGF-BB (Q05028 74-182 limits assumed): as the sequence (P31240 82-190 limits assumed) above, with I83V, I102V counted along it
Protocol for murine PDGF-BB: as §1
Protocol for rat PDGF-BB: as §1

B1: antibody 0085 (antibody, V domains shown)
VH: EVQLVESGGGLVQPGGSLRLSCAASGFTFSSYWMSWVRQAPEKGLEWVSTISDGGGLTYYADSVKGRFTISRDNAKNSLYLQMNSLRAEDTAVYYCAESGGYTDWLFGYWGQGTLVTVSS
VL: not shown
notes: Human antibody from a human Ig locus transgenic rabbit
On to B1, for which the Kd with human PDGF-BB [1] was found to be 23 pM; with cynomolgus PDGF-BB [6], 47.8 pM; with human PDGF-BB [7], 47.6 pM. The EC50 was 0.016 µg/mL with rat PDGF-BB, 0.025 µg/mL with murine PDGF-BB, 0.0153 µg/mL in the test with cynomolgus PDGF-BB [2] and 0.00755 µg/mL with human PDGF-BB [3]. Further, in the test with human PDGF-BB [4], the “Balb-C3T3 Proliferation, IC50” value is 60 pM. Besides, the “Pericytes Migration, IC50” value with human PDGF-BB [4] came to 150 pM. In addition, the “Pericytes Proliferation, IC50” value in the test with human PDGF-BB [4] amounted to 110 pM. In the test with human PDGF-BB [5], this molecule had a half-maximal inhibitory concentration (IC50) of 0.0178 µg/mL. In the test with human PDGF-BB [8], the “IC50 Proliferation 3T3” value came to 0.0318 µg/mL. Moreover, the koff is 4.52e-05 s⁻¹ with cynomolgus PDGF-BB [9], 4.4e-05 s⁻¹ in the test with human PDGF-BB [10] and 0.000102 s⁻¹ with human PDGF-BB [12]. In addition, the kon with cynomolgus PDGF-BB [9] was 940000 M⁻¹ s⁻¹; with human PDGF-BB [10], 930000 M⁻¹ s⁻¹. The T½ in the test with human PDGF-BB [11] came out at 146 min. The molecule also had a t½ with human PDGF-BB [12] of 114 min.

B2: antibody 0106 (Fab, V domains shown)
VH: B1 VH
VL: not shown
As to B2, in the test with human PDGF-BB [13], the Kd came to 2000 pM, the koff was 0.000374 s⁻¹, the kon turned out to be 202000 M⁻¹ s⁻¹ and the t½ is 30.9 min. For the same molecule, the Kd with human PDGF-BB [14] was determined as 2000 pM. This molecule also had a T½ with human PDGF-BB [15] of 30.9 min. In the test with human PDGF-BB [16], this molecule registered a Kd of 1000 pM, a koff of 0.000291 s⁻¹, a kon of 294000 M⁻¹ s⁻¹ and a t½ of 40.

B3: antibody 0086 (antibody, V domains shown)
VH: B1 VH
VL: not shown
notes: as for B1
B3: the Kd in the test with human PDGF-BB [1] was 30 pM; with cynomolgus PDGF-BB [6], 17.8 pM; with human PDGF-BB [7], 21.8 pM. The EC50 with rat PDGF-BB came to 0.0106 µg/mL; with murine PDGF-BB, 0.0141 µg/mL; in the test with cynomolgus PDGF-BB [2] it was 0.0162 µg/mL; with human PDGF-BB [3], 0.012 µg/mL. Also, the “Balb-C3T3 Proliferation, IC50” value with human PDGF-BB [4] was 110 pM. In addition, the “Pericytes Migration, IC50” value with human PDGF-BB [4] came to 90 pM. Further, the “Pericytes Proliferation, IC50” value in the test with human PDGF-BB [4] was 90 pM. Also, the IC50 in the test with human PDGF-BB [5] stood at 0.0117 µg/mL. The “IC50 Proliferation 3T3” value in the test with human PDGF-BB [8] was found to be 0.056 µg/mL. Further, the koff with cynomolgus PDGF-BB [9] stood at 1.84e-05 s⁻¹; in the test with human PDGF-BB [10], 2.3e-05 s⁻¹; in the test with human PDGF-BB [12] it was 7.93e-05 s⁻¹. The association rate constant (kon) with cynomolgus PDGF-BB [9] and with human PDGF-BB [10] was 1.04e+06 M⁻¹ s⁻¹ throughout. The molecule further came in with a T½ with human PDGF-BB [11] of 41 min. For the same molecule, the t½ with human PDGF-BB [12] amounted to 146 min.

B4: antibody 0107 (Fab, V domains shown)
VH: B1 VH
VL: not shown
Turning to B4, in the test with human PDGF-BB [13], the Kd is 2000 pM, the off-rate (koff) stood at 0.000362 s⁻¹, the kon turned out to be 195000 M⁻¹ s⁻¹ and the t½ came to 31.9 min. For the same molecule, the Kd in the test with human PDGF-BB [14] came out at 2000 pM. Further, the T½ with human PDGF-BB [15] came out at 31.9 min.

B5: PDGF-B-mumAb Fab (Fab, V domains shown)
VH: QVQLQQSGAELMKPGASVKISCKATGYTFSSYWIEWVKQRPGHGLEWIGEILPGSGSTNYNEKFKVKATFTADTSSNTAYMQLSSLTSEDSAVYYCAQTTQDFDSWGQGTTLTVSS
VL: DIVLTQSPGSLAVSLGQRATISCRASESVDIYGYSFMHWYQQKPGQPPKLLIYRASNLESGIPARFSGSGSRTDFTLTINPVEADDVATYYCQQSNEDPRTFGGGTKLEIK
notes: Fab fragment of PDGF-B-mumAb
For B5, the Kd with human PDGF-BB [17] turned out to be 5000 pM. The T½ with human PDGF-BB [18] turned out to be 5.75 min. In the test with human PDGF-BB [19], this molecule yielded a Kd of 5000 pM, a koff of 0.00201 s⁻¹, a kon of 439000 M⁻¹ s⁻¹ and a t½ of 5.75 min.

B6: antibody 0031 (bispecific antibody, V domains shown)
VH 1: QVQLVQSGAEVKKPGASVKVSCKASGYTFTGYYMHWVRQAPGQGLEWIGYISSYNAFTTYNQKFRGRATFTVDTSISTAYMELSRLRSDDTAVYYCVRSDYYGTSLYWGQGTLVTVSS
VL 1: EIVLTQSPATLSLSPGERATLSCRASSSVSYMHWSQQKPGQAPRLLIYSTSNLASGIPARFSGSGSGTDFTLTISSLEPEDFAVYYCHQWSNYYTFGQGTKLEIK
VH 2: not shown
VL 2: SYVLTQPPSVSVAPGQTARITCGGNNIGSKSVHWYQQKPGQAPVLVVYDTSDRPSGIPERFSGSNSGNTATLTISRVEAGDEADYYCQVWDSSSDHWVFGGGTKLTVLSS
notes: CrossMab; also called anti-IL-1beta/ANG2 antibody; bispecific anti-ANG2/IL-1beta antibody
As for B6, in the test with ANG2, the “ANG2 specific pTie2-ELISA, activity against the anti-ANG2/VEGF antibody reported in WO 2014/09465” value was 6 fold. In addition, in the test with human IL-1beta [20], the “EC50, reduction of IL-6 expression upon IL-1beta stimulation of A549 cells” value turned out to be 0.017 µg/mL. Further, the “IC50, inhibition of ICAM-1 expression upon IL-1beta stimulation of A549 cells” value with human IL-1beta [21] was 0.104 µg/mL. For the same molecule, in the test with human IL-1beta [22], the Kd came to 120 pM, the koff came out at 0.000302 s⁻¹, the kon was 2.56e+06 M⁻¹ s⁻¹ and the “t 1/2” value turned out to be 38. In test [23], this molecule came in with a Kd of 8000 pM, a koff of 0.00115 s⁻¹, a kon of 145000 M⁻¹ s⁻¹ and a t½ of 10.1 min.
